# Data published in PMC9098913, “In vitro reconstitution of Escherichia coli divisome activation” (Nature Communications, 2022).
# B1: FtsA R286W (protein)
# chain: MIKATDRKLVVGLEIGTAKVAALVGEVLPDGMVNIIGVGSCPSRGMDKGGVNDLESVVKCVQRAIDQAELMADCQISSVYLALSGKHISCQNEIGMVPISEEEVTQEDVENVVHTAKSVRVRDEHRVLHVIPQEYAIDYQEGIKNPVGLSGVRMQAKVHLITCHNDMAKNIVKAVERCGLKVDQLIFAGLASSYSVLTEDERELGVCVVDIGGGTMDIAVYTGGALRHTKVIPYAGNVVTSDIAYAFGTPPSDAEAIKVRHGCALGSIVGKDESVEVPSVGGRPPWSLQRQTLAEVIEPRYTELLNLVNEEILQLQEKLRQQGVKHHLAAGIVLTGGAAQIEGLAACAQRVFHTQVRIGAPLNITGLTDYAQEPYYSTAVGLLHYGKESHLNGEAEVEKRVTASVGSWIKRLNSWLRKEF
# modifications: Cy3 or Cy5 at the N-terminus in the labelled form (labelled CLEPTGG peptide conjugated to the 5xGly tag by sortagging); unlabelled protein also used; left off: TwinStrep-SUMO, N-terminal, cleaved | 5x
# Test: Diffusion coefficient (Dcoeff) of FtsA from FRAP
# Details: for Diffusion Coefficient, mean: Fig. 3j; for Dcoeff: Fig. S3i/S3j, summary value
# From the text: We could also use the data from these bleaching experiments to quantify the membrane-binding kinetics and diffusion of membrane-bound proteins by analysing the change of the fluorescence profile during recovery.
# Equimolar concentrations of Cy3- and Cy5-labelled FtsA, supplemented with 20% unlabelled FtsA were used to study FRET and FRAP. Five pre-bleach frames were acquired, followed by acceptor photobleaching of a rectangular ROI with 40% 641 nm laser power and a dwell size of 1 µs/pixel, 75% overlapping lines. The recovery of the signal or the increase in donor intensity were measured with either two frames or one frame per second.
# Bleaching the acceptor dye leads to an increase in the donor intensity, which can be used to quantify the Foerster Resonance energy transfer (FRET)[48]. FRET efficiency was quantified with E%=Ipost/Ipost+Ipre⋅100 , where Ipost is the intensity of the […] and Ipre is the […]. […] To extract the contribution of both processes, we adjusted a routine recently published by Gerganova et al.[33]. In short, the code provides the contribution of both modes of recovery by analysing the shape of the fluorescence recovery profile. […] Contribution of diffusion leads to a change of the slope of the outer borders of the bleached region (S4h right). Thus, by measuring the change of the slope of the border recovery, diffusion and simple on/off binding can be distinguished. We developed “FRAPdiff”, a graphical user interface, which uses the original fit routine by David Rutkowski. It can be used directly on.tiff movies with annotated bleach regions as ImageJ ROIs. In addition, we added optional bleach correction, user selectable projection axis (x or y), and optional mirroring of the recovery profiles, if bleaching was not symmetric. The original fit routine for estimating the recovery and diffusion dynamics can be found at https://github.com/davidmrutkowski/1DReflectingDiffusion. FRAPdiff is available at 10.5281/zenodo.6400639[49] under the GPLv3 open-source license.
molecule,measurement,setting,value
B1,"Diffusion Coefficient, mean",0.1 µM FtsA + N,7.25E-02 µm2/s
same,"Diffusion Coefficient, mean",0.1 µM FtsA + Z&N,2.31E-02 µm2/s
same,"Diffusion Coefficient, mean",0.1 µM FtsA + Z,5.72E-03 µm2/s
same,Diffusion Coefficient,"0.1µM FtsA alone, Mean, n=18 (WT), 6 (R286W)",0.0520
same,"Diffusion Coefficient, mean",0.1 µM FtsA alone,5.20E-02 µm2/s
same,Diffusion Coefficient,"0.1µM FtsA alone, replicate Exp.1",8.43E-02
same,Diffusion Coefficient,"0.1µM FtsA alone, replicate Exp.2",1.09E-02
same,Diffusion Coefficient,"0.1µM FtsA alone, replicate Exp.3",6.73E-03
same,Diffusion Coefficient,"0.1µM FtsA alone, replicate Exp.4",8.58E-02
same,Diffusion Coefficient,"0.1µM FtsA alone, replicate Exp.5",8.30E-02
same,Diffusion Coefficient,"0.1µM FtsA alone, replicate Exp.6",4.11E-02
same,Diffusion Coefficient,"0.1µM, + FtsN&Z, Mean, n=5 (WT), 3 (R286W)",0.0231
same,Diffusion Coefficient,"0.1µM, + FtsN&Z, replicate Exp.1",1.54E-02
same,Diffusion Coefficient,"0.1µM, + FtsN&Z, replicate Exp.2",3.28E-02
same,Diffusion Coefficient,"0.1µM, + FtsN&Z, replicate Exp.3",2.10E-02
same,Diffusion Coefficient,"0.1µM, + FtsN, Mean, n=5 (WT), 3 (R286W)",0.0725
same,Diffusion Coefficient,"0.1µM, + FtsN, replicate Exp.1",2.08E-01
same,Diffusion Coefficient,"0.1µM, + FtsN, replicate Exp.2",5.52E-03
same,Diffusion Coefficient,"0.1µM, + FtsN, replicate Exp.3",4.11E-03
same,Diffusion Coefficient,"0.1µM, + FtsZ, Mean, n=8 (WT), 4 (R286W)",0.0057
same,Diffusion Coefficient,"0.1µM, + FtsZ, replicate Exp.1",3.86E-04
same,Diffusion Coefficient,"0.1µM, + FtsZ, replicate Exp.2",2.70E-04
same,Diffusion Coefficient,"0.1µM, + FtsZ, replicate Exp.3",1.57E-02
same,Diffusion Coefficient,"0.1µM, + FtsZ, replicate Exp.4",6.48E-03
same,"Diffusion Coefficient, mean",0.2 µM FtsA + N,7.49E-02 µm2/s
same,"Diffusion Coefficient, mean",0.2 µM FtsA + Z&N,3.50E-02 µm2/s
same,"Diffusion Coefficient, mean",0.2 µM FtsA + Z,1.81E-02 µm2/s
same,Diffusion Coefficient,"0.2µM FtsA alone, Mean, n=24 (WT), 6 (R286W)",0.1536
same,"Diffusion Coefficient, mean",0.2 µM FtsA alone,1.54E-01 µm2/s
same,Diffusion Coefficient,"0.2µM FtsA alone, replicate Exp.1",5.97E-01
same,Diffusion Coefficient,"0.2µM FtsA alone, replicate Exp.2",7.31E-02
same,Diffusion Coefficient,"0.2µM FtsA alone, replicate Exp.3",7.49E-02
same,Diffusion Coefficient,"0.2µM FtsA alone, replicate Exp.4",3.26E-02
same,Diffusion Coefficient,"0.2µM FtsA alone, replicate Exp.5",1.37E-01
same,Diffusion Coefficient,"0.2µM FtsA alone, replicate Exp.6",6.07E-03
same,Diffusion Coefficient,"0.2µM, + FtsN&Z, Mean, n=8 (WT), 6 (R286W)",0.0350
same,Diffusion Coefficient,"0.2µM, + FtsN&Z, replicate Exp.1",5.92E-02
same,Diffusion Coefficient,"0.2µM, + FtsN&Z, replicate Exp.2",5.62E-02
same,Diffusion Coefficient,"0.2µM, + FtsN&Z, replicate Exp.3",3.73E-02
same,Diffusion Coefficient,"0.2µM, + FtsN&Z, replicate Exp.4",2.25E-02
same,Diffusion Coefficient,"0.2µM, + FtsN&Z, replicate Exp.5",3.21E-02
same,Diffusion Coefficient,"0.2µM, + FtsN&Z, replicate Exp.6",2.82E-03
same,Diffusion Coefficient,"0.2µM, + FtsN, Mean, n=7 (WT), 4 (R286W)",0.0749
same,Diffusion Coefficient,"0.2µM, + FtsN, replicate Exp.1",3.41E-02
same,Diffusion Coefficient,"0.2µM, + FtsN, replicate Exp.2",6.37E-02
same,Diffusion Coefficient,"0.2µM, + FtsN, replicate Exp.3",1.01E-01
same,Diffusion Coefficient,"0.2µM, + FtsN, replicate Exp.4",1.01E-01
same,Diffusion Coefficient,"0.2µM, + FtsZ, Mean, n=7 (WT), 6 (R286W)",0.0181
same,Diffusion Coefficient,"0.2µM, + FtsZ, replicate Exp.1",2.61E-02
same,Diffusion Coefficient,"0.2µM, + FtsZ, replicate Exp.2",3.49E-02
same,Diffusion Coefficient,"0.2µM, + FtsZ, replicate Exp.3",2.40E-02
same,Diffusion Coefficient,"0.2µM, + FtsZ, replicate Exp.4",1.48E-02
same,Diffusion Coefficient,"0.2µM, + FtsZ, replicate Exp.5",2.86E-04
same,Diffusion Coefficient,"0.2µM, + FtsZ, replicate Exp.6",8.41E-03
same,"Diffusion Coefficient, mean",0.4 µM FtsA + N,4.57E-02 µm2/s
same,"Diffusion Coefficient, mean",0.4 µM FtsA + Z&N,7.88E-03 µm2/s
same,"Diffusion Coefficient, mean",0.4 µM FtsA + Z,3.05E-02 µm2/s
same,Diffusion Coefficient,"0.4µM FtsA alone, Mean, n=18 (WT), 9 (R286W)",0.1352
same,"Diffusion Coefficient, mean",0.4 µM FtsA alone,1.35E-01 µm2/s
same,Diffusion Coefficient,"0.4µM FtsA alone, replicate Exp.1",1.81E-01
same,Diffusion Coefficient,"0.4µM FtsA alone, replicate Exp.2",2.05E-02
same,Diffusion Coefficient,"0.4µM FtsA alone, replicate Exp.3",2.71E-02
same,Diffusion Coefficient,"0.4µM FtsA alone, replicate Exp.4",1.05E-01
same,Diffusion Coefficient,"0.4µM FtsA alone, replicate Exp.5",1.05E-01
same,Diffusion Coefficient,"0.4µM FtsA alone, replicate Exp.6",1.63E-01
same,Diffusion Coefficient,"0.4µM FtsA alone, replicate Exp.7",2.73E-01
same,Diffusion Coefficient,"0.4µM FtsA alone, replicate Exp.8",2.14E-01
same,Diffusion Coefficient,"0.4µM FtsA alone, replicate Exp.9",1.27E-01
same,Diffusion Coefficient,"0.4 µM FtsA, FRAP, p-value […] 10^−6",0.14 ± 0.08 µm^2/s
same,Diffusion Coefficient,"0.4µM, + FtsN&Z, Mean, n=6 (WT), 9 (R286W)",0.0079
same,Diffusion Coefficient,"0.4µM, + FtsN&Z, replicate Exp.1",3.88E-02
same,Diffusion Coefficient,"0.4µM, + FtsN&Z, replicate Exp.2",8.74E-03
same,Diffusion Coefficient,"0.4µM, + FtsN&Z, replicate Exp.3",4.31E-03
same,Diffusion Coefficient,"0.4µM, + FtsN&Z, replicate Exp.4",3.80E-04
same,Diffusion Coefficient,"0.4µM, + FtsN&Z, replicate Exp.5",1.83E-02
same,Diffusion Coefficient,"0.4µM, + FtsN&Z, replicate Exp.6",1.51E-04
same,Diffusion Coefficient,"0.4µM, + FtsN&Z, replicate Exp.7",1.71E-04
same,Diffusion Coefficient,"0.4µM, + FtsN, Mean, n=5 (WT), 6 (R286W)",0.0457
same,Diffusion Coefficient,"0.4µM, + FtsN, replicate Exp.1",2.78E-02
same,Diffusion Coefficient,"0.4µM, + FtsN, replicate Exp.2",2.32E-02
same,Diffusion Coefficient,"0.4µM, + FtsN, replicate Exp.3",3.10E-02
same,Diffusion Coefficient,"0.4µM, + FtsN, replicate Exp.4",1.25E-01
same,Diffusion Coefficient,"0.4µM, + FtsN, replicate Exp.5",3.86E-02
same,Diffusion Coefficient,"0.4µM, + FtsN, replicate Exp.6",2.82E-02
same,Diffusion Coefficient,"0.4µM, + FtsZ, Mean, n=5 (WT), 8 (R286W)",0.0305
same,Diffusion Coefficient,"0.4µM, + FtsZ, replicate Exp.1",9.70E-03
same,Diffusion Coefficient,"0.4µM, + FtsZ, replicate Exp.2",1.10E-04
same,Diffusion Coefficient,"0.4µM, + FtsZ, replicate Exp.3",2.57E-02
same,Diffusion Coefficient,"0.4µM, + FtsZ, replicate Exp.4",8.47E-04
same,Diffusion Coefficient,"0.4µM, + FtsZ, replicate Exp.5",3.19E-02
same,Diffusion Coefficient,"0.4µM, + FtsZ, replicate Exp.6",1.28E-01
same,Diffusion Coefficient,"0.4µM, + FtsZ, replicate Exp.7",3.30E-03
same,Diffusion Coefficient,"0.4µM, + FtsZ, replicate Exp.8",4.40E-02
same,"Diffusion Coefficient, mean",0.8 µM FtsA + N,4.39E-02 µm2/s
same,"Diffusion Coefficient, mean",0.8 µM FtsA + Z&N,7.03E-03 µm2/s
same,"Diffusion Coefficient, mean",0.8 µM FtsA + Z,1.59E-02 µm2/s
same,Diffusion Coefficient,"0.8µM FtsA alone, Mean, n=19 (WT), 8 (R286W)",0.1136
same,"Diffusion Coefficient, mean",0.8 µM FtsA alone,1.14E-01 µm2/s
same,Diffusion Coefficient,"0.8µM FtsA alone, replicate Exp.1",2.82E-01
same,Diffusion Coefficient,"0.8µM FtsA alone, replicate Exp.2",8.82E-02
same,Diffusion Coefficient,"0.8µM FtsA alone, replicate Exp.3",6.72E-02
same,Diffusion Coefficient,"0.8µM FtsA alone, replicate Exp.4",7.30E-02
same,Diffusion Coefficient,"0.8µM FtsA alone, replicate Exp.5",1.01E-01
same,Diffusion Coefficient,"0.8µM FtsA alone, replicate Exp.6",8.47E-02
same,Diffusion Coefficient,"0.8µM FtsA alone, replicate Exp.7",1.13E-01
same,Diffusion Coefficient,"0.8µM FtsA alone, replicate Exp.8",9.93E-02
same,Diffusion Coefficient,"0.8µM, + FtsN&Z, Mean, n=5 (WT), 4 (R286W)",0.0070
same,Diffusion Coefficient,"0.8µM, + FtsN&Z, replicate Exp.1",2.90E-03
same,Diffusion Coefficient,"0.8µM, + FtsN&Z, replicate Exp.2",7.64E-03
same,Diffusion Coefficient,"0.8µM, + FtsN&Z, replicate Exp.3",1.38E-02
same,Diffusion Coefficient,"0.8µM, + FtsN&Z, replicate Exp.4",3.70E-03
same,Diffusion Coefficient,"0.8µM, + FtsN, Mean, n=4 (WT), 3 (R286W)",0.0439
same,Diffusion Coefficient,"0.8µM, + FtsN, replicate Exp.1",1.96E-02
same,Diffusion Coefficient,"0.8µM, + FtsN, replicate Exp.2",4.05E-02
same,Diffusion Coefficient,"0.8µM, + FtsN, replicate Exp.3",7.15E-02
same,Diffusion Coefficient,"0.8µM, + FtsZ, Mean, n=3 (WT), 8 (R286W)",0.0159
same,Diffusion Coefficient,"0.8µM, + FtsZ, replicate Exp.1",3.69E-02
same,Diffusion Coefficient,"0.8µM, + FtsZ, replicate Exp.2",8.95E-03
same,Diffusion Coefficient,"0.8µM, + FtsZ, replicate Exp.3",1.47E-02
same,Diffusion Coefficient,"0.8µM, + FtsZ, replicate Exp.4",3.84E-03
same,Diffusion Coefficient,"0.8µM, + FtsZ, replicate Exp.5",3.32E-03
same,Diffusion Coefficient,"0.8µM, + FtsZ, replicate Exp.6",1.93E-02
same,Diffusion Coefficient,"0.8µM, + FtsZ, replicate Exp.7",8.19E-14
same,Diffusion Coefficient,"0.8µM, + FtsZ, replicate Exp.8",4.01E-02
same,Dcoeff,0.10 µM FtsA,5.20E-02 µm2/s
same,Dcoeff,0.20 µM FtsA,6.48E-02 µm2/s
same,Dcoeff,0.40 µM FtsA,1.35E-01 µm2/s
same,Dcoeff,0.80 µM FtsA,1.14E-01 µm2/s
